Tests used:
[1] = target: T1, Plasmodium falciparum lactate dehydrogenase (PfLDH) (Plasmodium falciparum, UniProt Q76NM3 1-316); assay: SPR
[2] = target: T1, Plasmodium falciparum lactate …; assay: SPR; remark: listed apart in the source

| Binder | Kd [1] [nM] | binding result [2] |
| --- | --- | --- |
| TTTAGATCTTTGCCGCTGGGCGGTAGAACCATAGTGACCCAGCCGTCTAC (structured_DNA, biotin (position not given)) [biotinylated L2] | 66 ± 7 |  |
| nanotrain without L2 on SPR chip (NT0; 5'-biotin-D + C + B + A.1) (mixed, 5' biotin on D) DNA 1: CGGCAAAGATCTAAAGGCGACAAGGAAAATCCTTCAACGAAGTGGGTCGCCCTAACTCTCTATCCG DNA 2: TTGAGCTGGTTGTATGGCGACAAGGAAAATCCTTCAACGAAGTGGGTCGCCGGATAGAGAGTTAGG DNA 3: ATACAACCAGCTCAAGGCGACAAGGAAAATCCTTCAACGAAGTGGGTCGCCATTCATAAACATAAC DNA 4: GGCGACAAGGAAAATCCTTCAACGAAGTGGGTCGCCGTTATGTTTATGAAT |  | no binding |

— PMC9969250
